Assay [1] addresses TNF receptor-1 (TNFR-1), rat (rat) (UniProt P22934).
For assay [2] the target is unchanged. This is another data set of the same source.
For assay [3], the target named is TNF receptor-2 (TNFR-2), rat (rat) (UniProt Q80WY6).
Assay [4] has the same target. This is another data set of the same source.

Sequence of UniProt P22934 (P22934 30-461): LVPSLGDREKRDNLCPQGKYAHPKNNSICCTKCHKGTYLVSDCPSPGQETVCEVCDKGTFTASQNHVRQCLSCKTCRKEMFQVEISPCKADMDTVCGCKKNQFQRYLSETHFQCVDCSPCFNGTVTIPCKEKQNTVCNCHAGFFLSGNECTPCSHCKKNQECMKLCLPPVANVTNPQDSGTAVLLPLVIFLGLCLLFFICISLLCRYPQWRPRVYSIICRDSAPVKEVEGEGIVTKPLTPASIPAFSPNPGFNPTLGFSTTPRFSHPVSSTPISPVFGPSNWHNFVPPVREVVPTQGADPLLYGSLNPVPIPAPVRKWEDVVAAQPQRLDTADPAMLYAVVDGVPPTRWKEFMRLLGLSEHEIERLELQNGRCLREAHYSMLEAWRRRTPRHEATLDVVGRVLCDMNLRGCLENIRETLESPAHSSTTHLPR
Sequence of UniProt Q80WY6 (Q80WY6 23-474): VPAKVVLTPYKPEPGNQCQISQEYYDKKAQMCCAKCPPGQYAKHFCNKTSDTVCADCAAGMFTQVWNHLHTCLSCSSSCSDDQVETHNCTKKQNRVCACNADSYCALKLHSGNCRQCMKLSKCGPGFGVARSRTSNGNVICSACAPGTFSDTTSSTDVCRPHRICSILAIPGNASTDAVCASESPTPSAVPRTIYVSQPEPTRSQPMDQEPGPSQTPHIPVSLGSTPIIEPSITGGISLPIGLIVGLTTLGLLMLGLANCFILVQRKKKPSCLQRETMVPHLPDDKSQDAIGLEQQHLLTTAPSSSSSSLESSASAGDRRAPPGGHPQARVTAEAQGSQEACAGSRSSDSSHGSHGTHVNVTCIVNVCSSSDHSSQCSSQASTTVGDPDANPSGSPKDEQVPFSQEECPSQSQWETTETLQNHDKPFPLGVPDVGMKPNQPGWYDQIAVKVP

Turning to “TNF mutant protein R32W (R32W/S86T), selective TNFR-1 agonist (ligand)”, the increase of the TTX-resistant NaV1.8 current I NaV(1.8) in small rat DRG neurons, whole-cell patch clamp, repetitive depolarization to 0 mV, R32W 100 pg, 300 s after treatment in assay [1] came out at 18.9%. The substance also yielded an increase of the voltage-gated sodium channel current I Na(V) in small rat DRG neurons, whole-cell patch clamp, repetitive depolarization to 0 mV, R32W 10 pg (dose-dependent over 1-100 pg) in assay [2] of 27.2%.
“TNF mutant protein D145 (D143N/A145R), selective TNFR-2 agonist (ligand)” yielded an increase of the TTX-resistant NaV1.8 current I NaV(1.8) in small rat DRG neurons, whole-cell patch clamp, repetitive depolarization to 0 mV, D145 100 pg, 300 s after treatment in assay [3] of 14.5%. Further, the increase of the voltage-gated sodium channel current I Na(V) in small rat DRG neurons, whole-cell patch clamp, repetitive depolarization to 0 mV, D145 10 pg (dose-dependent over 1-100 pg) in assay [4] came out at 44.9%.

The values above are taken from publication PMC4609494.
